We go through 3 molecules from patent US20220267414A1.

Experiment [1] deals with canine parvovirus CPV-2b (canine parvovirus CPV-2b). The experiment is described as follows: cell-based or functional assay.
Experiment [2] deals with recombinant canine parvovirus CPV2b capsid (Advanced ImmunoChemical Inc Cat #8-CPV) (canine parvovirus CPV2b). The experiment can be described thus: BLI (Octet), biotinylated antibody on streptavidin tips, VLP at 40 µg/mL as analyte, 1:1 fit. On the technique in general: Biolayer interferometry detects binding as a change in optical thickness at a sensor tip.

irrelevant canine IgG (antibody) registered a CPV-2b HI (hemagglutination inhibition) in experiment [1] of less than 20.

B1: Chimeric Canine Mab B v2 (antibody, V domains shown)
VH: QVQLKESGPGLVQPSETLSLTCTVSGFSLTSYGVSWVRQPPGKGLEWMGTMWNDGDTDYNSALRSKLSISRDTSKSQVFLKMNSLQTEDTAIYYCARSQLPGYNLRGWFVYWGQGTLVIVSA
VL: DIQMTQSPPVLSASVGDRVTLSCKASHNINKNLEWYQQKLGEAPKLLIYYANNLQTGIPSRFSGSGSGTDYTLTISSLQPEDVATYYCYQYNSGHTFGAGTKLEIKR
For orientation: Kd means the constant that tells how readily two partners part at equilibrium. Turning to B1, the equilibrium dissociation constant (Kd) in experiment [2] worked out at 0.00938 nM.

B2: Chimeric Canine Mab A v2 (antibody)
heavy: QVQLKESGPGLVAPSQTLSLTCTVSGFSLSSYHVHWVRQPPGKGLEWLGVMWNDGDTSYNLALNSRLSISRDTSKSQVFFKMSSLQTEDTATYYCARPELPGLTYGVWFPYWGQGTLVTVSAASTTAPSVFPLAPSCGSTSGSTVALACLVSGYFPEPVTVSWNSGSLTSGVHTFPSVLQSSGLYSLSSMVTVPSSRWPSETFTCNVAHPASKTKVDKPVPKRENGRVPRPPDCPKCPAPEMLGGPSVFIFPPKPKDTLLIARTPEVTCVVVDLDPEDPEVQISWFVDGKQMQTAKTQPREEQFNGTYRVVSVLPIGHQDWLKGKQFTCKVNNKALPSPIERTISKARGQAHQPSVYVLPPSREELSKNTVSLTCLIKDFFPPDIDVEWQSNGQQEPESKYRTTPPQLDEDGSYFLYSKLSVDKSRWQRGDTFICAVMHEALHNHYTQESLSHSPGK
light: DIVMTQTPASMSISVGDRVTMNCKASQNVDSNVDWYQQKTGQSPNLLIYKASNRNTGVPDRFTGSGSGTDFTFTISNMQAEDLAVYYCMQSTSYPLTFGSGTKLEIKRNDAQPAVYLFQPSPDQLHTGSASVVCLLNSFYPKDINVKWKVDGVIQDTGIQESVTEQDKDSTYSLSSTLTMSSTEYLSHELYSCEITHKSLPSTLIKSFQRSECQRVD
Consider B2, for which the dissociation constant Kd in experiment [2] was found to be 0.0978 nM.
